The source of these data is patent publication US10280197B2, “Discovery of the first selective C5A receptor 2 (C5L2/C5AR2) ligands” (The Regents of the University of California, priority 2015, dated 2019).

Data set [1] can be described thus: Estimated blood concentration after i.v. dose. The data set is classed as in vivo. The following applies: C57BL/6J, whole blood, intravenous; 3 mg/kg, assuming a blood volume of 2 mL for a 25 g mouse. As to the method:
To further explore the selectivity of the ligands P32 was tested in a mouse model of C5a-induced neutrophil mobilization (FIG. 6). […] Assuming a mouse blood volume of 2 mL for a 25 g mouse, a concentration of 3 mg/kg would result in Cmax blood concentrations of ˜50 uM, a dose within the active range of this compound from our in vitro studies

For data set [2], the target named is T1, human C5a2 (Flp-In CHO-C5a2 membranes) (Homo sapiens, UniProt Q9P296).
T1 construct: expressed in transfected cells
T1 sequence (Q9P296 whole entry): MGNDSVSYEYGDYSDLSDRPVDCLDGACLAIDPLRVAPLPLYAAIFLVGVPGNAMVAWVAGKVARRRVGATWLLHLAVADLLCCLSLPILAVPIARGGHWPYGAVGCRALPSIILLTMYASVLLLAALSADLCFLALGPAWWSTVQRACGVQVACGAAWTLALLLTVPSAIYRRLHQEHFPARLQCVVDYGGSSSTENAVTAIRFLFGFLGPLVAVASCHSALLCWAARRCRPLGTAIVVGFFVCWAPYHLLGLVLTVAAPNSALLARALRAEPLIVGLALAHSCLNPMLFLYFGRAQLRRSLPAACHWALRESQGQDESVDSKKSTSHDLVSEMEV
As to the kind of experiment: C5a2 receptor binding, scintillation proximity assay (125I-C5a displacement). The following applies: concentrations up to 1 μM. As to the method:
Membranes were prepared from Flp-In CHO-05a2 cells by a previously described method^46. Briefly, cells were washed with PBS, pH 7.4, and harvested into buffer (50 mM Tris-HCl, pH 7.4, 5 mM MgCl2, 1 mM CaCl2) before homogenizing with a Polytron homogenizer for 3 min on setting 22. Cells were centrifuged at 150×g for 5 min at 4° C. The supernatant was recovered and centrifuged at 22 000×g for 1 h at 4° C. Membrane pellets were then resuspended in 0.4 mL of ice-cold buffer (50 mM Tris-HCl, pH 7.4, 5 mM MgCl2, 1 mM CaCl2, containing 10% glycerol) with aliquots stored at −80° C. The protein concentration of the membrane preparation was determined by Bradford method^47.
C5a2 receptor binding studies were performed using a modification of a previously described scintillation proximity assay (SPA) method^48. Briefly, C5a2 SPA studies were performed in 96-well white isoplates with clear flat bottoms (Perkin Elmer, Waltham, Mass., USA). SPA beads (200 μg/well) were added, following the addition of various concentrations of competing ligands or buffer (6 pM to 500 μM) in a total volume of 80 μL of assay buffer (50 mM Tris-HCl, pH 7.4, 0.5% BSA, 5 mM MgCl2, 1 mM CaCl2). ^125I-C5a (˜20 pM) (specific activity, 2200 Ci mmol^−1) (Perkin Elmer) was added to C5a2 membrane preparations (˜2 μg/well). The final reaction volume per well comprised 20 μL of ligand/buffer, 20 μL of SPA beads, 20 μl of membrane and the assay was initiated by the addition of 20 μL of ^125I-C5a. The plate was then sealed using TopSeal-A (Perkin Elmer) sealing film and incubated with shaking for 1 h at room temperature. Radioligand binding was then assessed for 30 s/well using a 1450 Microbeta scintillation counter (Perkin Elmer).

The subject of data set [3] is LPS stimulated HMDM. The following applies: literature reference 33; cited from earlier work.
Another data set addresses T2, C5a1-C5a2 heteromer (Homo sapiens, UniProt P21730+Q9P296).
T2 construct: expressed in transfected cells; host or cells: HEK293 (transient)
The following applies: high concentrations of C5a, previously shown; cited from earlier work.

The target in another data set is C5a2 (Homo sapiens, UniProt Q9P296). As to the kind of experiment: BRET C5a2-β-arrestin 2 recruitment assay in HEK293 cells. The class given is cell-based. Further details: expressed in transfected cells; host or cells: HEK293 (transient). As to the method: Assays were performed as a ligand-induced BRET experiment similar to previously described^17, 31, 49. In brief, HEK293 cells were transiently transfected with either C5a1-Rluc8 and β-arrestin 2-Venus or C5a2-Venus and β-arrestin 2-Rluc8 or C5a1-Rluc8 and C5a2-Venus in a 100-mm dish. 24 h after transfection cells were collected and transferred to a 96-well white microplate (Corning, N.Y., USA) in phenol-red free DMEM containing 5% FBS and 25 mM HEPES (Life Technologies). Cells were allowed to settle for 24 h and then were incubated with 30 μM Enduren (Promega, Madison, Wis., USA) for 2 h at 37° C. and 5% CO2 to ensure that the substrate had reached equilibrium. Following incubation BRET baseline measurements were taken for 15 min then ligands were added to plate and BRET measurements were taken for a further 1 h at 37° C. using a POLARstar optima microplate reader (BMG Labtech, Ortenberg, Germany). Filtered light emissions were sequentially measured for 1 s in each of the following windows 460-490 nm and 520-550 nm, both before and following ligand addition. The ligand-induced BRET ratio was calculated by subtracting the ratio of 520-550 nm emission over the 460-490 nm emission for a vehicle-treated sample from a ligand-treated sample of the same aliquot of cells in triplicate. The BRET ratio was calculated by subtracting the ratio of 520-550 nm emission over the 460-490 nm emission for a cell sample containing the C5a1-Rluc8 or β-arrestin 2-Rluc8 construct from a cell sample containing both the C5a1-Rluc8 and β-arrestin 2-Venus or C5a2-Venus and β-arrestin 2-Rluc8 or C5a1-Rluc8 and C5a2-Venus constructs. Peptides were also tested for ligand-induced β-arrestin 2 recruitment at 100 μM using DiscoveRx PathHunter kits for human C5a1 and C5a2 (DiscoveRx Corporation. Birmingham, UK), according to the manufacturer's instructions.
Sequence of C5a2 (Q9P296 whole entry): as above
Sequence of C5a2 (P32121 whole entry partner): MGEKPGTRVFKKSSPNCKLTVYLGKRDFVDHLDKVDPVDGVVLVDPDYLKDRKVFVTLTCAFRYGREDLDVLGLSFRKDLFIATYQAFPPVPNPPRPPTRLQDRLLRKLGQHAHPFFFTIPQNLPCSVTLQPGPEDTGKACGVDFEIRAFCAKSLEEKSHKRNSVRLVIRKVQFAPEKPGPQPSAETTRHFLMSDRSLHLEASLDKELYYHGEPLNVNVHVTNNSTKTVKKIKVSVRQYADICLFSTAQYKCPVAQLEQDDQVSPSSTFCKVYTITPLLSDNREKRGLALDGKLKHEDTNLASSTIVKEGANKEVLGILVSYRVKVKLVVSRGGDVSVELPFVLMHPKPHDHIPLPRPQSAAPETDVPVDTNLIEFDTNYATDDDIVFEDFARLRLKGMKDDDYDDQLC
In general terms: In BRET a luciferase serves as donor, and the signal depends on an acceptor being close.

Data set [4] deals with LPS stimulated HMDM. Briefly: Cytokine release from LPS stimulated HMDM (ELISA). The class given is cell-based, human. The following applies: C5a1 antagonist PMX53 10 μM pre-incubated 30 min. As to the method:
FIG. 4 is a panel of graphs showing the testing P32 and P59 for effects on cytokine release from LPS stimulated HMDM. Measurement of human inflammatory cytokines IL-6 (4A, 4B), TNFα (4C, 4D) and IL-10 (4E, 4F) release from HMDM, 24 h after co-stimulation with LPS (10 ngml^−1) and C5a (0.1-100 nM), P32 or P59 (0.1-100 μM) with or without C5a1 antagonist PMX53 (10 μM) present. Cytokine release was quantified by ELISA. Data is representative of five independent HMDM donors performed in triplicate (n=5). CTRL represents non-stimulated HMDM. Data is normalised to LPS response (100%) for each donor. Error bars represent SEM. *P<0.05, ** P<0.01, *** P<0.001, **** P<0.0001 by one-way ANOVA followed by Dunnett's post hoc test or Sidak's post hoc test for comparisons+/−PMX53.
Briefly, HMDMs were seeded in 96 well tissue culture plates (Nunc) at 100 000 cells/well and allowed to adhere overnight at 37° C. and 5% CO2. The next day HMDMs were stimulated with E. coli derived LPS (10 ng ml^−1) only or LPS (10 ng ml^−1) and either C5a or C5a2 ligands at various concentrations (1-100 nM (C5a) or 0.1-100 μM (C5a2 ligands)). For testing cytokine release in the presence of C5a1 antagonist (PMX53), cells were pre-incubated with PMX53 at 10 μM for 30 min prior to addition of C5a or C5a2 ligands. Following ligand addition HMDMs were returned to 37° C. and 5% CO2 incubator and 24 h after stimulation supernatant was removed from cells and transferred to 96 well polypropylene microplate (Nunc) and stored at −20° C. till needed for assay. Quantification of cytokine release was performed using ELISA kits (BD OptEIA™) as per manufacturers' instructions (BD Biosciences, San Jose, Calif., USA).
(ELISA stands for enzyme-linked immunosorbent assay.)

T2 sequence (P21730 whole entry): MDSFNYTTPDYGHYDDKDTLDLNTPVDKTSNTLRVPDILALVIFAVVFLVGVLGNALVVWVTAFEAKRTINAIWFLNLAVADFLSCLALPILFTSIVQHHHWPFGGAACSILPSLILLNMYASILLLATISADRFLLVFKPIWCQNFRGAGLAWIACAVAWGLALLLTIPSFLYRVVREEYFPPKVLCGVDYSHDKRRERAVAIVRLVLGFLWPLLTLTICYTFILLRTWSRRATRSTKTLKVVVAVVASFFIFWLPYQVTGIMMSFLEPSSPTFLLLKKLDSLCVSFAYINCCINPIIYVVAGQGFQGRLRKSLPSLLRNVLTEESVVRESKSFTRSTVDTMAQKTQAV
T2 sequence (Q9P296 whole entry): as the sequence (Q9P296 whole entry) above

In general, Cmax refers to the highest concentration seen after dosing. For “Ac-RHYPYWR-OH [Peptide P32, Ac-RHYPYWR-OH]”, the Cmax in data set [1] was about 50 µM.
In the case of “C3a: human isolated complement protein purchased from Merck Biosciences [Peptide C3a]”, the “displacement of 125I-C5a from Flp-In CHO-C5a2 membrane preparations” value (from here on “displacement of 125I-C5a”) in data set [2] is “do not bind”.
Same read-out and setting: the result for “C3a-des Arg: human isolated C3a-des Arg/acylation-stimulating protein (ASP), purchased from Merck Biosciences” reads “do not bind”.

B1: C5a: complement activation peptide; human recombinant C5a purchased from Sino Biologicals (protein)
chain: TLQKKIEEIAAKYKHSVVKKCCYDGACVNNDETCEQRAARISLGPRCIKAFTECCVVASQLRANISHKDMQLGR
By EC50 is commonly meant the concentration giving half of the maximal effect. Turning to B1, in the data set with LPS stimulated HMDM [3], the “IL-6 release from LPS stimulated HMDMs” value is “dose-dependently inhibits”, the “IL-10 release from LPS stimulated HMDMs” value is “increasing the release” and the “TNFα release from LPS stimulated HMDMs” value is reported as “dose-dependently inhibits”. Also, in the data set with C5a1-C5a2 heteromer, the “up-regulation of heteromer formation between C5a1-C5a2” value was “can up-regulate heteromer formation”. The “displacement of 125I-C5a” value in data set [2] is “full inhibition”. For the same molecule, the “C5a2-β-arrestin 2 BRET Recruitment (% of C5a)” value with C5a2 is reported as 100 % of C5a. In addition, the EC50 with C5a2 (calculated at ~40 min after ligand addition) is 0.0503 ± 0.0042 µM. For the same molecule, in the data set with LPS stimulated HMDM [4], the “IL-6 release from LPS stimulated HMDM in the presence of PMX53” value is recorded as “completely blocked”, the “IL-10 release from LPS stimulated HMDM in the presence of PMX53” value was “completely blocked” and the “TNFα release from LPS stimulated HMDM in the presence of PMX53” value is listed as “completely blocked”.

B2: C5a-des Arg: human isolated complement protein purchased from Merck Biosciences (protein)
chain: TLQKKIEEIAAKYKHSVVKKCCYDGACVNNDETCEQRAARISLGPRCIKAFTECCVVASQLRANISHKDMQLG
Consider B2, for which the “displacement of 125I-C5a” value in data set [2] was “full inhibition”.
